In patent publication US20160311923A1 (SORRENTO THERAPEUTICS, published 2016):

Key:
[1] = molecular target: T1, endogenous human ErbB3 expressed on human cancer cells (MCF7; A431NS) (human, UniProt P21860 20-1342); assay: flow cytometry on MCF7 cells
T1 construct: whole, on cells; also called Her3; HER3/c-ErbB3
Procedure: This example illustrates the binding of anti-ErbB3 antibodies to endogenous human ErbB3 expressed on human cancer cells, as assayed by flow cytometry. EC₅₀ values for antibodies were determined as follows.
Her3 expressing MCF7 cells were harvested with enzyme-free Cell Dissociation Buffer (GIBCO) and transferred to V-Bottom 96 well-plates (50,000 cells/well). Cells were incubated on ice for 30 min with serial dilutions of anti-ErbB3 antibodies in FACS buffer (PBS+2% FBS)+NaN₃. After 2 washes in FACS buffer, a 1:1000 dilution of Phycoerythrin conjugated anti-Human IgG (γ-chain specific) was added and incubated for 30 min. Following a final wash, fluorescence intensity was measured on an Intellicyt High Throughput Flow Cytometer (HTFC). Data were analyzed using Graphpad Prism software using non-linear regression fit. Data points are shown as the median fluorescence intensity (MFI) of positively labeled cells +/− Standard Error. EC₅₀ values are reported as the concentration of antibody to achieve 50% of maximal ErbB3 antibodies binding to ErbB3 expressing cells.

[2] = molecular target: T1, endogenous human ErbB3 expressed on …; assay: cell-based or functional assay

T1 sequence (P21860 20-1342): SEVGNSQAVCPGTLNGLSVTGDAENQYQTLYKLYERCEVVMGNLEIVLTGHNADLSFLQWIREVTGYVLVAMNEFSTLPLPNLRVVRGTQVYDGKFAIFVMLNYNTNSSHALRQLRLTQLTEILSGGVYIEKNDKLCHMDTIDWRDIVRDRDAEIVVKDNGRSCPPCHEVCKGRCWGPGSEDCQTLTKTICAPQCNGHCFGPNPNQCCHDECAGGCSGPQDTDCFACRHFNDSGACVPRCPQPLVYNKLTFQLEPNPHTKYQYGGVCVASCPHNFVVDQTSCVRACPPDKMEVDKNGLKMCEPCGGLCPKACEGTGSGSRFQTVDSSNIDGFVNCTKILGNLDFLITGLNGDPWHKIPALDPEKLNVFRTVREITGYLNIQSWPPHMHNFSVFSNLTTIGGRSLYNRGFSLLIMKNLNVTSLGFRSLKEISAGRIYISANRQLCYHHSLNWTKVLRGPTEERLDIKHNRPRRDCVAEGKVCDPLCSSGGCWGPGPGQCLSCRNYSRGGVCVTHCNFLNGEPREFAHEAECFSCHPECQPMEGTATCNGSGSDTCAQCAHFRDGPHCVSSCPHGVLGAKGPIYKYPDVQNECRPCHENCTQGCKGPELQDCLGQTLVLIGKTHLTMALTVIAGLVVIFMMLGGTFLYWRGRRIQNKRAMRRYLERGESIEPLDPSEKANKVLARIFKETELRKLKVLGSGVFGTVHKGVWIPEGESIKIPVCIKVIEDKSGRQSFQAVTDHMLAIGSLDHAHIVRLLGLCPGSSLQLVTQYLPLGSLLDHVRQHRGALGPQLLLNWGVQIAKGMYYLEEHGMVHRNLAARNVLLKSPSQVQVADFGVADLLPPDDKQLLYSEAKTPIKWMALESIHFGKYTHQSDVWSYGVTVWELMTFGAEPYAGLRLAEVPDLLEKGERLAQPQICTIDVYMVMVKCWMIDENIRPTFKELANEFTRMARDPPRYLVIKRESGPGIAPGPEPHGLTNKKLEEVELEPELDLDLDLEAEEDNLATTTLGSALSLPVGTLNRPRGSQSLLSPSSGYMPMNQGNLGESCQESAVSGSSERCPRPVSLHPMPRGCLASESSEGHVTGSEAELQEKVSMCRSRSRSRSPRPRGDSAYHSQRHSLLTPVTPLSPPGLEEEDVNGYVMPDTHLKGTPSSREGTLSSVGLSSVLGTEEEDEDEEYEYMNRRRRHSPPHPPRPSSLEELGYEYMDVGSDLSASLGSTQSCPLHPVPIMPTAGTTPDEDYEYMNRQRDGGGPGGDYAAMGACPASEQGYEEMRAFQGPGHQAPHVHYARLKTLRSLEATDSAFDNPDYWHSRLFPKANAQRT

B1: B08 (antibody, V domains shown)
VH: QVQLVQSGAEVKKPGASVKVSCKASGYTFTSHYGISWVRQAPGQGLEWMGSITPHNGKTNYVQMFQGRVTMTTDTSTRTVYMELRNLRSDDTAVYYCARDWNFADFDYWGQGTLVTVSS
VL: QSVLTQPPSASGSPGQSVTISCTGTSSDVGGYNFVSWYQQHPGKAPKLMIYDVTNRPSGVSNRFSGSKSGNTASLTISGLQAEDEADYYCSSYTSSSTPYVFGTGTKLTVL
[1]
  EC50: 0.0921 nM

B2: D07 (antibody, V domains shown)
VH: QVQLVESGGGLVQPGGSLRLSCVASGFTFSSYWMSWVRQAPGKGLEWVAYINLDGSEKDYVDSVKGRFTISRDNAKNSLYLQMNSLRAEDTALYYCAKAYSSSWLLSGGMDVWGQGTTVTVSS
VL: SYELTQPASVSGSPGQSITISCTGTSSDVGNYNSVSWYQQHPGKAPELMIYDVNNRPSGVSNRFSGSKSGNTASLTISGLQAEDEADYYCSSYTSSSTLVFGGGTQLTVLG
[1]
  EC50: 0.933 nM

B3: A02 (antibody, V domains shown)
VH: EVQLVQSGAEVKKPGASVTVSCKPSGYAFTDYYIHWVRQAAGQGLEWMGWVDPRSGATVYAQNFQGRVTMTRDRSSSTVYMDLSRVTSDDTALYFCGRDNYGIFDYWGQGTLVTVSS
VL: QPVLTQPPSVSAAPGQRVTISCSGSSSNIGNNYLSWYQQLPGTAPKLLIYDDTKRPSGIPDRFSGSKSGTSATLGITGLQTGDEADYYCGTWDGSLDAEVFGTGTKLTVL
notes: also called ErbB3-A02; anti-ErbB3 A02
[2]
  IC50, inhibition of ERK1/2 phosphorylation induced by NRG1 beta-1 (phospho-p44/42 MAPK ELISA, MCF7): 0.12 nM
  IC50, inhibition of ErbB3 phosphorylation induced by Heregulin (phospho-HER3 ELISA, MCF7): 0.12 nM
  IC50, inhibition of NRG1-beta 1 induced MCF7 proliferation (MTT): 2.8 nM
[1]
  EC50: 1.22 nM

B4: D08 (antibody, V domains shown)
VH: QVQLVESGGGLVKPGGSLRLSCAASGFTSSSYVLNWVRQAPGKGLEWVSSISSRGSYIYYADSVKGRFTISRDNAKNSLYLQMNSLRAEDTAVYYCARERAGFSPVNAFDIWGQGTMVTVSS
VL: QSVLTQPASVSGSPGQSITISCTGSSSDVGSYNLVSWYQQHPGKAPKLMIYDDNRRPSGISTRFSGSKSGNTASLTVSGLQAEDEAYYYCSSYAGRNNDVIFGGGTQLTVL
[1]
  EC50: 1.93 nM

B5: D04 (antibody, V domains shown)
VH: EVQLLESGGGLVKPGGSLRLSCAASGFTFSSYSMNWVRQAPGKGLEWVSSISSSSSYIYYADSVKGRFTISRDNAKNSLYLQMNSLRAEDTAVYYCARGFGEDLFDYWGQGTLVTVSS
VL: QSVLTQPPSVSVAPGKTARITCGGNNIGSKSVHWYQQKPGQAPLLVIYYDTDRPSGIPERFSGSNSENTATLTISGVEAGDEADYYCQVWDIGSDQVVFGTGTKVTVL
[1]
  EC50: 0.0242 nM

B6: E08 (antibody, V domains shown)
VH: EVQLVESGGGLIQPGGSLRLSCAASGFTVSSNYMSWVRQAPGKGLEWVSVIYSGGSTYYADSVKGRFTISRDNSKNTLYLQMNSLRAEDTAVYYCARDFGVGAVDYWGQGTLVTVSS
VL: QSVLTQPASVSGSPGQSITISCTGTSSDVGGYNFVSWYQQHPGKAPKLMIYDVTNRPSGVSNRFSGSKSGNTASLTISGLQAEDEADYYCSSYTDSSTLDVVFGGGTKVTVL
[1]
  EC50: 3.07 nM

B7: A11 (antibody, V domains shown)
VH: QVQLVQSGRGLVQPGRSLRLSCAASGFTFDEYAMHWVRHAPGKGLEWVAGMSWNGGGIGYADSVKGRFTISRDNSKNTLYLQMNSLRAEDTAVYYCAREGAGGSYPTDAFDIWGQGTTVTVSS
VL: IVLTQSPSSLSASVGDRVTITCQASHDISNYLTWYQHRPGRAPKLLIFDASRLETGVPSRFSGYGSGKDFTFTISGLQPEDFATYYCQHYADLPSFGQGTKLEIK
notes: also called ErbB3-A11
[1]
  EC50: 0.219 nM

B8: B11 (antibody, V domains shown)
VH: QVQLVQSGRGLVQPGRSLRLSCAASGFTFDEYAMHWVRHAPGKGLEWVAGMSWNGGGIGYADSVKGRFTISRDNSKNTLYLQMNSLRAEDTAVYYCAREGAGGSYPTDAFDIWGQGTTVTVSS
VL: EIVLTQSPSSLSASVGDRVTITCQASHDISNYLTWYQHRPGRAPKLLIFDASRLETGVPSRFSGYGSGKDFTFTISGLQPEDFATYYCQHYADLPSFGQGTKVDIK
[1]
  EC50: 0.049 nM

B9: A04 (antibody, V domains shown)
VH: QVQLQQSGPGLVQPSQTLSLTCDISGDSVSSTGAAWNWIRQSPSRGLEWLGRTYYRSKWYNDYALSVRSRITITPDTSKNQFSLQLNSVTPEDTAVYYCVRDGDVGLDAFDIWGQGTMVTVSS
VL: QTVVTQAPSVSVAPGQTARITCGGNNIGSKSVHWYQQKPGQAPVLVVYDDSDRPSGIPERFSGSNSGNTATLTISRVEAGDEADYYCQVWDSTSDHVVFGGGTKVTVL
notes: also called ErbB3-A04; anti-ErbB3 A04
[2]
  IC50, inhibition of ERK1/2 phosphorylation induced by NRG1 beta-1 (phospho-p44/42 MAPK ELISA, MCF7): 0.13 nM
  IC50, inhibition of ErbB3 phosphorylation induced by Heregulin (phospho-HER3 ELISA, MCF7): 0.13 nM
[1]
  EC50: 0.163 nM

B10: A01 (antibody, V domains shown)
VH: QVQLVQSGAEVKQPGASVKVSCKASGGTFSSYAISWVRQAPGQGLEWMGGIIPIFGTANYAQKFQGRVTITADESTSTAYMELSSLRSEDTAVYYCATTTMVRGVIMYYFDYWGQGTLVTVSS
VL: QSALTQPPSASGSPGQSVTISCTGTSSDVGAYNDVSWYQHHPGKAPKLIIYEVNHRPSGVPDRFSGSKSDNTASLTISGLQAEDEADYYCSSYTPSNTPLVFGSGTKVTVL
notes: fully human antibody of an IgG class, detected with anti-human IgG (gamma-chain specific); also called ErbB3-A01; anti-ErbB3 A01
[2]
  IC50, inhibition of ERK1/2 phosphorylation induced by NRG1 beta-1 (phospho-p44/42 MAPK ELISA, MCF7): 0.46 nM
  IC50, inhibition of ErbB3 phosphorylation induced by Heregulin (phospho-HER3 ELISA, MCF7): 0.46 nM
  IC50, inhibition of NRG1-beta 1 induced MCF7 proliferation (MTT): 10.6 nM
[1]
  EC50: 5.71 nM

B11: D03 (antibody, V domains shown)
VH: QVQLVESGGGLVKPGGSLRLSCAASGFTFSSYSMNWVRQAPGKGLEWVSSISSSSSYIYYADSVKGRFTISRDNSKNTLYLQMNSLRDEDTAVYYCAREILTGYYPDAFDMWGQGTMVTVSS
VL: SYELMQPPSVSVAPGKTARITCGGNNIGSKSVHWYQQKPGQAPVVVIYYDSDRPSGIPERFSGSNSGNTATLTISRVEAGDEADYYCQVWDSSSDHYVFGTGTKLTVL
[1]
  EC50: 5.97 nM

B12: C03 (antibody, V domains shown)
VH: QVQLVQSGAEVKKPGASVKVSCKASGYTFTSYGISWVRQAPGQGLEWMGWISAYNGNTNYAQKLQGRVTMTTDTSTSTAYMELRSLRSDDTAVYYCAREAYAWGAFDIWGQGTMVTVSS
VL: SYELMQPPSVSVAPGKTARITCGGNNIGSKSVHWYQQKPGQAPVLVIYYDSDRPSGIPERFSGSNSGNTATLTISRVEAGDEADYYCQVWDSSRDHAVFGGGTKLTVL
[1]
  EC50: 0.427 nM

B13: A08 (antibody, V domains shown)
VH: QMQLVQSGADVKKPGASVRVSCKTSGYTFTSYDINWVRQAPGQGLEWMGWMNPDTGNTAYVQKFQGRVTVTRDTSINTVYMELSGLRSEDTAVYYCAKSGGSSSYDAFDIWGQGTMVTVSS
VL: QSVLTQPPSVSVAPGNTATITCGGDNIGEKTVHWYQQRPGQAPALVIYYDSDRPSGIPERFSGSNSGNTATLTISRVEAGDEADYYCQVWDSSSDHVVFGGGTKLTVL
notes: also called ErbB3-A08
[2]
  IC50, inhibition of NRG1-beta 1 induced MCF7 proliferation (MTT): 12.8 nM
[1]
  EC50: 0.747 nM

B14: D10 (antibody, V domains shown)
VH: QVQLVESGGGLVQPGGSLRLACAASGFTFSNYEMNWVRQAPGKGLEWVATISDDSVYKYYADSVKGRFTISRDNSKALFYLQMDSLTFEDTAIYYCARDPGGDSLGYFQHWGQGTLVTVSS
VL: QAGLTQPPSASASPGDSVTLTCTLSSDHSDYKVDWYQQRPGKGPRFVMRVGTGGIVGVKGDGIPDRFSVWGSGPNRYLTIKNIQEEDESDYHCGSDHGSGNNYVYVFGGGTKLTVL
[1]
  EC50: 2.01 nM

B15: B01 (antibody, V domains shown)
VH: QVQLVESGGGLVQPGGSLRLACAASGFTFSNYEMNWVRQAPGKGLEWVATISDDSVYKYYADSVKGRFTISRDNSKALFYLQMDSLTFEDTAIYYCARDPGGDSLGYFQHWGQGTLVTVSS
VL: QAGLTQPPSASASPGDSVTLTCTLSSDHSDYKVDWYQQRPGKGPRFVMRVGTGGIVGVKVSNRFSGSKSGNTASLTISGLQAEDEADYYCSSYTDSSTLDVVFGGGTKLTVL
[1]
  EC50: 2.65 nM

B16: D01 (antibody, V domains shown)
VH: EVQLVQSGAEVRKPGASVKVSCKASQYTFTNYHIHWVRQVPGQGLEWMAMINPSNGNTNYGQRFQDRVTLTRDTSTSTAYMELSSLRSEDTAVYLCARDGLTFGDLLAYWGQGTLVTVSS
VL: QSVLTQPPSASGTPGQSVTISCSGSSSNIGGNTVNWYQQFPGTAPKLLMYINNLRPAGVPDRFSGSKSGTSASLVISGLQSEDEADYYCASWDDSLSGLVFGGGTKLTVL
[1]
  EC50: 4.03 nM
